Test results reported in patent US7038112B2, “Fatty acid elongases” (Miami University, priority 1997, dated 2006).
Where two headings read alike, the source gives them in different places.

Tests used:
[1] = In vitro fatty acid elongation assay with yeast microsomes, 18:0 acyl-CoA substrate; assay type: biochemical, Saccharomyces cerevisiae; conditions: for (%) 20:0 acyl CoA / (%) 22:0 acyl CoA / (%) 24:0 acyl CoA / (%) 26:0 acyl CoA / (%) Total / Rate, 20:0 acyl CoA / Rate, 22:0 acyl CoA / Rate, 24:0 acyl CoA / Rate, 26:0 acyl CoA / Rate, Total: second experiment
Method: (§1) Transformed yeast cells were grown in the presence of either glucose or galactose (2% w/v) as described in Example 1. Cells were harvested by centrifugation at 5000×g for 10 min and washed with 10 ml ice cold isolation buffer (IB), which contains 80 mM Hepes-KOH, pH 7.2, 5 mM EGTA, 5 mM EDTA, 10 mM KC1, 320 mM sucrose and 2 mM DTT). Cells were then resuspended in enough IB to fill a 1.7 ml tube containing 700 μl of 0.5 μm glass beads and yeast microsomes were isolated from the cells essentially as described in Tillman, T. and Bell, R., J. Biol. Chem. 261:9144–9149 (1986). The microsomal membrane pellet was recovered by centrifugation at 252,000×g for 60 min. The pellet was rinsed by resuspending in 40 ml fresh IB and again recovered by centrifugation at 252000×g for 60 min. Microsomal pellets were resuspended in a minimal volume of IB, and the protein concentration adjusted to 2.5 μg μl^−1 by addition of IB containing 15% glycerol. Microsomes were frozen on dry ice and stored at −80° C. The protein concentration in microsomes was determined by the Bradford method (Bradford, 1976).
(§2) Fatty acid elongase activity was measured essentially as described in Hlousek-Radojcic, A. et al., Plant J. 8:803–809 (1995). Briefly, the standard elongation reaction mix contained 80 mM Hepes-KOH, pH 7.2, 20 mM MgCl2, 500 μM NADPH, 1 mM ATP, 100 μM malonyl-CoA, 10 μM CoA-SH and 15 μM radioactive acyl-CoA substrate. The radiolabeled substrate was either [1^−14C]18:1-CoA (50 uCi μmol^−1), [1^−14C]18:0-CoA (55 uCi μmol^−1), or [1^−14C]16:0-CoA (54 uCi μmol^−1). The reaction was initiated by the addition of yeast microsomes (5 μg protein) and the mixture incubated at 30° C. for the indicated period of time. The final reaction volume was 25 μl.
(§3) Methyl esters of the acyl-CoA elongation products were prepared as described in Example 1. Methyl esters were separated on reversed phase silica gel KC18 TLC plates (Whatman, […] thick), quantified by phosphorimaging, and analyzed on by ImageQuant software (Molecular Dynamics, Inc., Sunnyvale, Calif.). The detection limit for each product is about 0.001 nanomoles per min. per mg microsomal protein, depending on the phosphorimage exposure time.
(§4) Yeast cultures containing full-length EL1 in λYES and full-length EL2 in pYEUra3 were grown in the presence of galactose or glucose as described in Example 2. Microsomes were then prepared from each of the cultures and fatty acid elongation assays were carried out as described in Example 2.
(§5) In the first experiment, microsomes were prepared from galactose-induced cultures of EL1, EL2 and FAE1, and incubated with either [1-^14C] 18:0 acyl-CoA or [1-^14C] 18:1 acyl-CoA as substrate. The amounts of various reaction products synthesized after 30 minutes (min) were determined as described in Example 2.
In a second experiment, microsomes were prepared from galactose-induced and from glucose-repressed yeast cultures containing EL1 or EL2 coding sequences. The microsomal preparations were incubated with either 18:0 acyl-CoA or 18:1 acyl-CoA as substrate and the fatty acid reaction products determined as described above. […]

[2] = assay type: biochemical, Saccharomyces cerevisiae; conditions: for (%) 20:1 acyl CoA / (%) 22:1 acyl CoA / (%) 24:1 acyl CoA / (%) 26:1 acyl CoA / (%) Total / Rate, 20:1 acyl CoA / Rate, 22:1 acyl CoA / Rate, 24:1 acyl CoA / Rate, 26:1 acyl CoA / Rate, Total: second experiment
Method: as §1, §2, §3, §4, §5
In a second experiment, microsomes were prepared from galactose-induced and from glucose-repressed yeast cultures containing EL1 or EL2 coding sequences. The microsomal preparations were incubated with either 18:0 acyl-CoA or 18:1 acyl-CoA as substrate and the fatty acid reaction products determined as described above.

[3] = 18:0-CoA substrate, +Galactose (induced)
[4] = 18:0-CoA substrate, +Glucose (uninduced)
[5] = 18:0-CoA substrate, galactose-induced, 30 min, first experiment
[6] = +Gal, standard reaction mix, average of two experiments
[7] = +Glu, standard reaction mix, one experiment
[8] = galactose-induced, −A&C (ATP and Coenzyme A omitted), average of two experiments
[9] = galactose-induced, −ATP, average of two experiments
[10] = galactose-induced, −CoA, average of two experiments
[11] = 18:1-CoA substrate, +Galactose (induced)
[12] = 18:1-CoA substrate, +Glucose (uninduced)
[13] = 18:1-CoA substrate, galactose-induced, 30 min, first experiment

B1: EL1: Arabidopsis β-keto acyl synthase gene product (SEQ ID NO:2) expressed in yeast microsomes (protein, listed as Arabidopsis thaliana)
chain: MDRERLTAEMAFRDSSSAVIRIRRRLPDLLTSVKLKYVKLGLHNSCNVTTILFFLIILPLTGTVLVQLTGLTFDTFSELWSNQAVQLDTATRLTCLVFLSFVLTLYVANRSKPVYLVDFSCYKPEDERKISVDSFLTMTEENGSFTDDTVQFQQRISNRAGLGDETYLPRGITSTPPKLNMSEARAEAEAVMFGALDSLFEKTGIKPAEVGILIVNCSLFNPTPSLSAMIVNHYKMREDIKSYNLGGMGCSAGLISIDLANNLLKANPNSYAVVVSTENITLNWYFGNDRSMLLCNCIFRMGGAAILLSNRRQDRKKSKYSLVNVVRTHKGSDDKNYNCVYQKEDERGTIGVSLARELMSVAGDALKTNITTLGPMVLPLSEQLMFLISLVKRKMFKLKVKPYIPDFKLAFEHFCIHAGGRAVLDEVQKNLDLKDWHMEPSRMTLHRFGNTSSSSLWYEMAYTEAKGRVKAGDRLWQIAFGSGFKCNSAVWKALRPVSTEEMTGNAWAGSIDQYPVKVVQ
With B1 the “(%) 20:0 acyl CoA” value [1, 3] was 55.8%, the “(%) 22:0 acyl CoA” value [1, 3] was 17.4% and the “(%) 24:0 acyl CoA” value [1, 3] was 15.3%. For the same molecule, the “(%) 26:0 acyl CoA” value [1, 3] was 11.5%, the “(%) Total” value [1, 3] was 100.0% and the “Rate, 20:0 acyl CoA” value [1, 3] was 0.074 Nanomoles/minute/mg of microsomal protein. The “Rate, 22:0 acyl CoA” value [1, 3] was 0.023 Nanomoles/minute/mg of microsomal protein, the “Rate, 24:0 acyl CoA” value [1, 3] was 0.020 Nanomoles/minute/mg of microsomal protein and the “Rate, 26:0 acyl CoA” value [1, 3] was 0.015 Nanomoles/minute/mg of microsomal protein. The “Rate, Total” value [1, 3] was 0.133 Nanomoles/minute/mg of microsomal protein, the “(%) 20:0 acyl CoA” value [1, 4] was 100.0% and the “(%) 22:0 acyl CoA” value [1, 4] was 0.0%. For the same molecule, the “(%) 24:0 acyl CoA” value [1, 4] was 0.0%, the “(%) 26:0 acyl CoA” value [1, 4] was 0.0% and the “(%) Total” value [1, 4] was 100.0%. For the same molecule, the “Rate, 20:0 acyl CoA” value [1, 4] was 0.007 Nanomoles/minute/mg of microsomal protein, the “Rate, 22:0 acyl CoA” value [1, 4] was 0.000 Nanomoles/minute/mg of microsomal protein and the “Rate, 24:0 acyl CoA” value [1, 4] was 0.000 Nanomoles/minute/mg of microsomal protein. The “Rate, 26:0 acyl CoA” value [1, 4] was 0.000 Nanomoles/minute/mg of microsomal protein, the “Rate, Total” value [1, 4] was 0.007 Nanomoles/minute/mg of microsomal protein and the “effect of omission of ATP and/or CoA on overall amounts of VLCFAs synthesized” value ([1]; 18:0-CoA substrate, galactose-induced) was “does not have a significant effect”. For the same molecule, the “(%) 20:0 acyl-CoA product” value [1, 5] was 38.8%, the “(%) 22:0 acyl-CoA product” value [1, 5] was 21.9% and the “(%) 24:0 acyl-CoA product” value [1, 5] was 19.9%. The “(%) 26:0 acyl-CoA product” value [1, 5] was 19.4%, the “(%) Total acyl-CoA products” value [1, 5] was 100.0% and the “Rate, 20:0 acyl-CoA product” value [1, 5] was 0.084 Nanomoles/minute/mg of microsomal protein. For the same molecule, the “Rate, 22:0 acyl-CoA product” value [1, 5] was 0.047 Nanomoles/minute/mg of microsomal protein, the “Rate, 24:0 acyl-CoA product” value [1, 5] was 0.043 Nanomoles/minute/mg of microsomal protein and the “Rate, 26:0 acyl-CoA product” value [1, 5] was 0.042 Nanomoles/minute/mg of microsomal protein. For the same molecule, the “Rate, Total acyl-CoA products” value [1, 5] was 0.216 Nanomoles/minute/mg of microsomal protein, the “20:0 product as a percent of total products formed” value (from here on “20:0 product as a percent”) [1, 6] was 46.2% and the “22:0 product as a percent of total products formed” value (“22:0 product as a percent” below) [1, 6] was 18.7%. For the same molecule, the “24:0 product as a percent of total products formed” value (shortened to “24:0 product as a percent”) [1, 6] was 18.1%, the “26:0 product as a percent of total products formed” value (“26:0 product as a percent” for short) [1, 6] was 17.1% and the “Total products as a percent of total products formed” value (“Total products as a percent” below) [1, 6] was 100.0%. The “20:0 product as a percent” value [1, 7] was 53.9%, the “22:0 product as a percent” value [1, 7] was 14.4% and the “24:0 product as a percent” value [1, 7] was 18.5%. The “26:0 product as a percent” value [1, 7] was 13.2%, the “Total products as a percent” value [1, 7] was 100.0% and the “increase in overall elongase activity on induction with galactose, 18:0 acyl CoA substrate” value ([1]; galactose-induced vs glucose) was “about 19 fold”. For the same molecule, the “20:0 product as a percent” value [1, 8] was 41.7%, the “22:0 product as a percent” value [1, 8] was 19.4% and the “24:0 product as a percent” value [1, 8] was 16.7%. For the same molecule, the “26:0 product as a percent” value [1, 8] was 22.3%, the “Total products as a percent” value [1, 8] was 100.0% and the “20:0 product as a percent” value [1, 9] was 34.4%. For the same molecule, the “22:0 product as a percent” value [1, 9] was 13.7%, the “24:0 product as a percent” value [1, 9] was 20.6% and the “26:0 product as a percent” value [1, 9] was 31.4%. The “Total products as a percent” value [1, 9] was 100.0%, the “20:0 product as a percent” value [1, 10] was 47.8% and the “22:0 product as a percent” value [1, 10] was 18.0%. The “24:0 product as a percent” value [1, 10] was 19.1%, the “26:0 product as a percent” value [1, 10] was 15.2% and the “Total products as a percent” value [1, 10] was 100.0%. The “18:0-CoA elongation activity, +Glu” value ([1]; microsomes from glucose-grown cultures, standard reaction mix) was “.037 nanomoles/minute/mg of microsomal protein”, the “increase in 18:1 CoA elongation, microsomes from induced vs uninduced cells” value [2] was “about 1.3 fold” and the “(%) 20:1 acyl CoA” value [2, 11] was 100.0%. For the same molecule, the “(%) 22:1 acyl CoA” value [2, 11] was 0.0%, the “(%) 24:1 acyl CoA” value [2, 11] was 0.0% and the “(%) 26:1 acyl CoA” value [2, 11] was 0.0%. For the same molecule, the “(%) Total” value [2, 11] was 100.0%, the “Rate, 20:1 acyl CoA” value [2, 11] was 0.081 Nanomoles/minute/mg of microsomal protein and the “Rate, 22:1 acyl CoA” value [2, 11] was 0.000 Nanomoles/minute/mg of microsomal protein. For the same molecule, the “Rate, 24:1 acyl CoA” value [2, 11] was 0.000 Nanomoles/minute/mg of microsomal protein, the “Rate, 26:1 acyl CoA” value [2, 11] was 0.000 Nanomoles/minute/mg of microsomal protein and the “Rate, Total” value [2, 11] was 0.081 Nanomoles/minute/mg of microsomal protein. The “(%) 20:1 acyl CoA” value [2, 12] was 100.0%, the “(%) 22:1 acyl CoA” value [2, 12] was 0.0% and the “(%) 24:1 acyl CoA” value [2, 12] was 0.0%. For the same molecule, the “(%) 26:1 acyl CoA” value [2, 12] was 0.0%, the “(%) Total” value [2, 12] was 100.0% and the “Rate, 20:1 acyl CoA” value [2, 12] was 0.062 Nanomoles/minute/mg of microsomal protein. The “Rate, 22:1 acyl CoA” value [2, 12] was 0.000 Nanomoles/minute/mg of microsomal protein, the “Rate, 24:1 acyl CoA” value [2, 12] was 0.000 Nanomoles/minute/mg of microsomal protein and the “Rate, 26:1 acyl CoA” value [2, 12] was 0.000 Nanomoles/minute/mg of microsomal protein. For the same molecule, the “Rate, Total” value [2, 12] was 0.062 Nanomoles/minute/mg of microsomal protein, the “(%) 20:1 acyl-CoA product” value [2, 13] was 80.8% and the “(%) 22:1 acyl-CoA product” value [2, 13] was 19.2%. For the same molecule, the “(%) 24:1 acyl-CoA product” value [2, 13] was 0.0%, the “(%) 26:1 acyl-CoA product” value [2, 13] was 0.0% and the “(%) Total acyl-CoA products” value [2, 13] was 100.0%. For the same molecule, the “Rate, 20:1 acyl-CoA product” value [2, 13] was 0.111 Nanomoles/minute/mg of microsomal protein, the “Rate, 22:1 acyl-CoA product” value [2, 13] was 0.026 Nanomoles/minute/mg of microsomal protein and the “Rate, 24:1 acyl-CoA product” value [2, 13] was 0.0 Nanomoles/minute/mg of microsomal protein. The “Rate, 26:1 acyl-CoA product” value [2, 13] was 0.0 Nanomoles/minute/mg of microsomal protein and the “Rate, Total acyl-CoA products” value [2, 13] was 0.137 Nanomoles/minute/mg of microsomal protein.
